Reference: patent EP0959894B1
Like-named read-outs stand apart in the source and are kept apart here.

Tests used:
[1] = target: urokinase-type plasminogen activator (u-PA) (UniProt P00749); assay: ratio of second order rate constants for inhibition
[2] = target: tissue plasminogen activator (t-PA) (UniProt P00750); assay: ratio of the rate constants toward t-PA and toward u-PA
[3] = target: tissue plasminogen activator (t-PA) (UniProt P00750); assay: ratio of selectivities from second order rate constants for inhibition
[4] = target: tissue plasminogen activator (t-PA) (UniProt P00750); assay: inhibition kinetics from residual enzyme activity (chromogenic assay), pseudo-first or second order conditions
[5] = target: urokinase-type plasminogen activator (u-PA) (UniProt P00749); assay: as above
[6] = target: urokinase-type plasminogen activator (u-PA) (UniProt P00749); assay: ratio of the rate constants toward u-PA and toward t-PA
[7] = target: urokinase-type plasminogen activator (u-PA) (UniProt P00749); assay: ratio of selectivities from second order rate constants for inhibition
[8] = target: tissue plasminogen activator (t-PA) (UniProt P00750); assay: inhibition kinetics from residual enzyme activity (chromogenic assay), pseudo-first or second order conditions; remark: listed apart in the source
[9] = target: urokinase-type plasminogen activator (u-PA) (UniProt P00749); assay: as above; remark: listed apart in the source
[10] = target: urokinase-type plasminogen activator (u-PA) (UniProt P00749); assay: ratio of the second order rate constants for inhibition

tissue plasminogen activator (t-PA), sequence (P00750 36-562 limits assumed): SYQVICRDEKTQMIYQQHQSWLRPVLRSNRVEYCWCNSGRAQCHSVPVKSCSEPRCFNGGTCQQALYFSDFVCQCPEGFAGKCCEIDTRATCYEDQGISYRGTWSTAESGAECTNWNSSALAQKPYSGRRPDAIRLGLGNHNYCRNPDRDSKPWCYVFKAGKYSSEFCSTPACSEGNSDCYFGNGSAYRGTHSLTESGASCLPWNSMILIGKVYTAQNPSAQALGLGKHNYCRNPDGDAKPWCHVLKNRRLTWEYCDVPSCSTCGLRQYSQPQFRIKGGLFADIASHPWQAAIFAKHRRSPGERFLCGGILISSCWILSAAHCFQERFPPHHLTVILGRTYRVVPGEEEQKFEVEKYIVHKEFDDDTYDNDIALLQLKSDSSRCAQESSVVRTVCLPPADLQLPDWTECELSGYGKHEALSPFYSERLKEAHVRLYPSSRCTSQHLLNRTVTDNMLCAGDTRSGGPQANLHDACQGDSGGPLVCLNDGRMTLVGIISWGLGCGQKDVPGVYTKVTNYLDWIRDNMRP

fold reduction of activity against wild type PAI-1 [1] | t-PA/u-PA Selectivity [2] | fold reversal in specificity toward t-PA against wild type PAI-1 [3] | second order rate constant for inhibition [4] | second order rate constant for inhibition [5] | fold gain of t-PA selectivity against the P3 arginine variant of PAI-1 [3] | fold gain of t-PA/u-PA selectivity against wild-type PAI-1 [3] | t-PA/u-PA Selectivity (as headed; the value is the u-PA/t-PA ratio) [6] | fold gain of u-PA/t-PA selectivity against wild type PAI-1 [7] | second order rate constant for inhibition [8] | second order rate constant for inhibition [9] | fold specificity toward u-PA over t-PA [10] | Substance
– | 0.08 | – | 1.6e+06 M⁻¹ s⁻¹ | 1.9e+07 M⁻¹ s⁻¹ | – | – | – | – | – | – | – | PAI-1/P4Q (from UniProt P05121 24-402)
– | 48 | – | 1.4e+06 M⁻¹ s⁻¹ | 29000 M⁻¹ s⁻¹ | 3.5 fold | 600 fold | – | – | – | – | – | PAI-1/P4Q,P3R (from UniProt P05121 24-402)
– | – | – | – | – | – | – | 69 | 7 fold | 90000 M⁻¹ s⁻¹ | 6.2e+06 M⁻¹ s⁻¹ | – | PAI-1/UK1 (from UniProt P05121 24-402)

The next lines start with the substance.

Substance | fold reduction of activity against wild type PAI-1 [1] | t-PA/u-PA Selectivity [2] | fold reversal in specificity toward t-PA against wild type PAI-1 [3] | second order rate constant for inhibition [4] | second order rate constant for inhibition [5] | fold gain of t-PA selectivity against the P3 arginine variant of PAI-1 [3] | fold gain of t-PA/u-PA selectivity against wild-type PAI-1 [3] | t-PA/u-PA Selectivity (as headed; the value is the u-PA/t-PA ratio) [6] | fold gain of u-PA/t-PA selectivity against wild type PAI-1 [7] | second order rate constant for inhibition [8] | second order rate constant for inhibition [9] | fold specificity toward u-PA over t-PA [10]
PAI-1/P3R (from UniProt P05121 24-402) | 190 fold | 14 | 170 fold | 1.4e+06 M⁻¹ s⁻¹ | 100000 M⁻¹ s⁻¹ | – | – | – | – | – | – | –
Wild type PAI-1 (recombinant human plasminogen activator inhibitor type 1) (from UniProt P05121 24-402) | – | 0.08 | – | 1.6e+06 M⁻¹ s⁻¹ | – | – | – | 11 | – | 1.8e+06 M⁻¹ s⁻¹ | 1.9e+07 M⁻¹ s⁻¹ | 11.9 fold
